Our source for the Octet response (nm) and fold reduction of affinity (KD) against control values is patent US20260207732A1.

Assay [1] addresses Mut10 (Influenza A virus A/Brisbane/02/2018 (H1N1)). Briefly: BLI (Octet) after 7D37C and trypsin; HA on Ni-NTA tips.
Assay [2] has as its target Mut17 (Influenza A virus A/Brisbane/02/2018 (H1N1)). The description is as above.
Assay [3] deals with Mut18 (Influenza A virus A/Brisbane/02/2018 (H1N1)). The assay is described as above.
Assay [4] deals with Mut23 (Influenza A virus A/Brisbane/02/2018 (H1N1)). The assay is described as above.
The target in assay [5] is Mut24 (Influenza A virus A/Brisbane/02/2018 (H1N1)). The description is as above.
The target in assay [6] is Mut27 (Influenza A virus A/Brisbane/02/2018 (H1N1)). Described as above.
Assay [7] deals with Mut10 (Influenza A virus A/Brisbane/02/2018 (H1N1)). Briefly: BLI (Octet), HA-foldon-His on Ni-NTA tips, IgG in solution. For orientation: BLI is a label-free optical method that tracks binding on a fibre tip over time.
The target in assay [8] is Mut17 (Influenza A virus A/Brisbane/02/2018 (H1N1)). Described as above.
Assay [9] concerns the target Mut18 (Influenza A virus A/Brisbane/02/2018 (H1N1)). The assay is described as above.
The target of assay [10] is Mut23 (Influenza A virus A/Brisbane/02/2018 (H1N1)). The assay is described as above.
Assay [11] concerns the target Mut24 (Influenza A virus A/Brisbane/02/2018 (H1N1)). The assay is described as above.
The target in assay [12] is Mut27 (Influenza A virus A/Brisbane/02/2018 (H1N1)). The assay is described as above.
Assay [13] concerns the target Mut24 (Influenza A virus A/Brisbane/02/2018 (H1N1)). Kind of assay: BLI (Octet) after 7D37C and trypsin; footnote to the marked cell.

In the case of CR9114 monoclonal antibody (IgG), the Octet response (nm) in [1] was 0.729 nm; in assay [2], 0.754 nm; in assay [3], 0.464 nm; in [4], 0.808 nm; in [5] it was 0.0617 nm; in assay [6], 0.314 nm. Further, the Octet response (nm) in assay [7] worked out at 0.805 nm; in assay [8], 0.814 nm; in assay [9] it was 0.731 nm; in assay [10], 0.901 nm; in assay [11] it was 0.872 nm; in assay [12], 0.337 nm. This substance displayed a fold reduction of affinity (KD) against control in assay [13] of 100 fold.

In the case of FI6v3 monoclonal antibody (IgG), the Octet response (nm) came to 0.737 nm in [1]; 0.748 nm in assay [2]; 0.484 nm in [3]; 0.745 nm in assay [4]; 0.406 nm in [5]; 0.313 nm in assay [6]. The Octet response (nm) in [7] came to 0.968 nm; in assay [8], 0.878 nm; in assay [9], 0.811 nm; in assay [10] it was 0.984 nm; in [11] it was 0.93 nm; in [12], 0.398 nm.
